The values that follow come from article PMC9239266 (mBio, 2022).

B1: CopC ΔN50 (recombinant) (domain or fragment)
chain: AAGKIGAFLRKAVAAQSYGLMFANGKLFEATGDALEKRGQYGFSALQRLDGLSRRNLAAVEARLGALDSAERGLKERIMTGAWHFRHQSNAALDDGKTAAIASNHLLARESRSSGGNTFAGDKALLSNHDFVFFGVEFSGRGKQDKPLNHKHSTMDFGANAYVVPDTLPACRHGYLTLTDHFFNRVPGGREAEHQDFVGSFPQMGAETGRWIHEGKYRQNAPIFNYRDMKAAVALHLIEFLRDSKDAAFKAYVFDQAMQSGQALDRVLNSVFQAEFHIPRLMATTDYAKHPLRPMLLKEAVDSVNLPALSGLVSSKGDAVTAMWHAIDKGKDAVAAHLLGNWRFEAGDFASAPPGFYHELNYALSEHGASVYILDQFLSRGWAAVNAPFEHVNSGETMLDNAVKYGNREMAAALIKHGADRNLLSEWNGGKLDALLA
notes: also called CopC Δ50; source: E. coli BL21(DE3), purified (glutathione-Sepharose, GST removed by PreScission protease)

Experiment [1] has as its target T1, recombinant CaM (human, UniProt P0DP23 1-149).
T1 construct: also called calmodulin; Ca^2+-free CaM
The experiment in a line: SEC. To be noted: both partners purified.

For experiment [2], the target named is B1. The experiment in a line: SEC. To be noted: both partners purified.

Consider B1, for which the binding result in experiment [1] is “binds”.

B2: caspase-7 p30 (C186A), ΔN23 (enzyme, human, UniProt P55210 24-303, looked up)
chain: AKPDRSSFVPSLFSKKKKNVTMRSIKTTRDRVPTYQYNMNFEKLGKCIIINNKNFDKVTGMGVRNGTDKDAEALFKCFRSLGFDVIVYNDCSCAKMQDLLKKASEEDHTNAACFACILLSHGEENVIYGKDGVTPIKDLTAHFRGDRCKTLLEKPKLFFIQAARGTELDDGIQADSGPINDTDANPRYKIPVEADFLFAYSTVPGYYSWRSPGRGSWFVQALCSILEEHGKDLEIMQILTRVNDRVARHFESQSDDPHFHEKKQIPCVVSMLTKELYFSQ
notes: also called CASP7 p30^C186A; caspase-7 p30 (C/A); source: E. coli BL21(DE3), purified (Ni-Sepharose)
With B2, the binding result in experiment [2] was “binds”.
